For the test, the target named is T1, Rnr2-Rnr4 heterodimer (ribonucleotide reductase small subunit) (S. cerevisiae, UniProt P09938 1-399; P49723 1-345).
T1 sequence (looked up) 1: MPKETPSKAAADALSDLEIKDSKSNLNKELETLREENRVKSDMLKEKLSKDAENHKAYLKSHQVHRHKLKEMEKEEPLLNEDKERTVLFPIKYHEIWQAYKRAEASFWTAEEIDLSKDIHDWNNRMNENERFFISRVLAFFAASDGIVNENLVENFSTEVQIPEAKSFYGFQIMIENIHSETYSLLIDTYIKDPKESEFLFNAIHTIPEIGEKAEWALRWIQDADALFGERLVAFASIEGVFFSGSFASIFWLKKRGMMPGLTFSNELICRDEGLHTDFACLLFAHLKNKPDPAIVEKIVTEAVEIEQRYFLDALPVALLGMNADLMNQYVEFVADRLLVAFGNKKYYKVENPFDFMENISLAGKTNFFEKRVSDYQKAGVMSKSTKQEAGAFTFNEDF
T1 sequence (looked up) 2: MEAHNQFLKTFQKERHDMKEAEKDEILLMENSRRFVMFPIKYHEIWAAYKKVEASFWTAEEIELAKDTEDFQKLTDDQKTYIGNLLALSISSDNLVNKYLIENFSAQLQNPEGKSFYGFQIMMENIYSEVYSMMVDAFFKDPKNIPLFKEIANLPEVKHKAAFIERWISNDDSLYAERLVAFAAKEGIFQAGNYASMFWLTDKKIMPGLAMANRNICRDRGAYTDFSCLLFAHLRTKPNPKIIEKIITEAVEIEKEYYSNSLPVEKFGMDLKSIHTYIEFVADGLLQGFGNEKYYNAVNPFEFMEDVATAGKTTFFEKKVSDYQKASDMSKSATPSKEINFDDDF
Briefly: SPR.

For one molecule, Kd results are on record in article PMC3245869 (Molecular cell, 2008).

B1: Recombinant wild-type Dif1 protein (His6-Dif1) (natural protein, S. cerevisiae, UniProt O13577 1-133, looked up)
chain: MDAQLEWASSLVPKRQLQQQQQQQEQQQQQQQDFHKDQLMTVGMRIRQRVDQGYASRTPSTSDASLQPGVIRDYSSVIVPQFTRSPLPTANSLPPMLINQRTMSTEASSLEKWDVAEPAAEHETMVNGSKRRL
B1 showed a Kd of 600 nM.
